Assay results from a protein production outcome set (Wang et al. 2014).

Assay: label from the status in PepcDB records

| Sequence | protein production |
| --- | --- |
| ETDKTAISVREIADNTYIVLGTMTLNDFNEYFETDLESDNVDTIAGFYLTGVGTIPSQEEKEHFEVESNGKHLELINDKVKDGRVTKLKILVSE | failed |
| ETLPPRQRQRALALPLRLNPRTVALGAQWRQEAGADDAAIVQRALNWVRTEFTYTLAATKRPGLHTVDEFLFRDKAGFCEQFSSSFVVLMRASGIPARVVTGYVGGIYNNLGHYWVIRRMDAHAWAEVWLPQRGWVRVDPTAAVAPERIRDTLEDRLAQNNNDASIDSHWRLADIGDWLRHSWNNLVLGFDAKRQQQLLHSFGINHLYVSQLMMLFIAFTSVSLGLMAWWLARGERERDALLRAWHRLDRHYARLGLGRTRHEPALVW | failed |
| EVVVAVASAPVDVAQVGRRRGRLAVIGLGPGAAELMVPAVKAELAQAEDVLGYETYVRMAGPFRGDQVLHCTDNREEMQRARHAFELAAQGRSVAVVSSGDPGVFAMAAAVLEALHESSDPTWHRVDLQILPGV | failed |
| FAMESYFKGDSGEAELLAVAHKVQSDAWALQKAAGIAVIGLDGTLYDQVLDTITWLGAIPPRFKHLSGLQRYYAMARGGAALDMSKFFDTNYHYLVPELGPDVLGPATAAGAPLQPDFSGPLDKLARGQAVVGRERAVPILIGPVTFVSLSRGCELPLDQAVARLLPTYCALLQQLAAAGAPEVQLHEPVLATSEGAGMRAEFETAYAQMAQAAGSVPLHLVTYYDDLGAAYPWAVQLPVAAVTLDFLGPPGAAVPSQTLALLQQHGFPADKRLGAGVVDGRSVWKDDGTAVALLRALLDTGAVSSDRLVVTSSAPLQHLPYDLGLELEAPKTPEAEPHLPPALAARLGFAKQKVEEIVSVARLAASPAAAAAAAGHGAVVQLQRLQQGKGVEDHTAD | failed |
| FDKLGNSAAIQEMNREVEAAAKRTSPVFLTGEAGSPFETVARYFHKNGTPWVSPARVEYLIDMPMELLQKAEGGVLYVGDIAQYSRNIQTGITFIIGKAERCRVRVIASCSYAAGSDGISCEEKLAGLFSESVVRIPPLS | not failed |
| FHSYTGELKIGASVASGQQVLRPALGKFMRQYPDLKVQLNLVNRRVDFIEEGFDVVIRIGQLNDSMLIAKKLGAINRKIFASPSYLAKQGNPDKVEQLTEHQLLIMNP | failed |
| FKAVFISDTHLGTKDSKASLLLEFIKEIETKELYLVGDIIDGWSLKRKWIWLQPHSDVIQKILKAARKGVRVTYILGNHDEFIRPFLPLALGDHIRVVDEATYKAKNKKRYKIVHGDLYDSITMTKKWLAILGDNGYQFLLRLNDPINTLRQRLGFRRYWSFSQFIKDHVKQAVAYISDFEKILVAHAREEKFDGIICGHIHKAEIRDIEGITYMNCGDWVESCTALVETLEGEFKIIRW | failed |
| FKDLRLVSYTLLFDFIVSRVIDLIGEGGYAGKGFMIITKRPDQLAKAINDDLGRGVTFISGQGYYSKENLKIIYCIVGRNEIVKTKEMIHRIDPQAFITITEAHEILGEGFTFEKE | failed |
| FKVPPFQDCILSFLGFSDEEKHSMEEMTEMQGGSYLPVGDERCTHLIVEENTVKDLPFEPSKKLFVVKQEWFWGSIQMDARAGETMYLYEKANTPE | not failed |
| FLILLRKTLEQLQEKDTGNIFSEPVPLSEVPDYLDHIKKPMDFFTMKQNLEAYRYLNFDDFEEDFNLIVSNCLKYNAKDTIFYRAAVRLREQGGAVLRQARRQAEKMG | not failed |
| FLVTPEGRRIAYRLTDGEGPAVVFCGGFKSDMEGTKALHLQAWAERTGRAFLRFDYSGHGQSEGAFLDGSIGDWFEDARAVCGLLAGPLLLVGSSMGGWISLLLAREMGARVAGLVGIAAAPDFTEDSMWGGFNAAQREALQRAGQVILPSDYSEEPYIITRRLIEEGRRRLVLRDPLELGFPVRLLQGTADVDVPPSVALRLLDHATGPDIRLTLVKGADHRFSTPECLRMIEQAVEELL | failed |
| FQKYQYPIYYGNAIFLADSPKKIDTPLYSPIKIAFEKALKNAKDSVFIASSYFIPGKKMMKIFKNQISKGIELNILTNSLSSTDAIVVYGAWERYRNQLVRMGANVYEIRNDFFNRQIKGRFSTKHSLHGKTIVFDDNLTLLGSFNIDPRSAYINTESAVLFDNPSFAKRVRLSLKDHAQQSWHLVVYRHRVIWEAVEEGILIHEKTSPDTSFFLRLIKEWSKVLPEREL | failed |
| FSIGVTGVMSAGKSTMLNAILQREILGTSVIPETANLTILRFDQNERAIVRFWNRHEWEMIAQSAQFDEGIDYFMKESLTVFGTVLHEYITQEGRTYEIPLEELSTYTSAKHPSKLCNLVKSVEIFTPLEFLDDGVEIVDTPGLDDPLTQREEITKEYLARCDVMLHLMNAAQPATQKDVDFIIDALIYQNVSRLLVILTRADSLTPQE | failed |
| FTCPITKEEMKKPVKNKVCGHTYEEDAIVRMIESRQKRKKKAYCPQIGCSHTDIRKSDLIQDEALRRAIENHNKKRHRHSE | not failed |
| GDGNITTENIPVSEYDCLELEGGGMVVNYTQSDAPEGLEIKTDRNIFEKYEFNVENHKLKIRPKKEFRKHTNFRPTEFMVTANSRNLKKLAAAGSTHVNINSPLQAEEFEAGLAGSGIIQFHDTASFTNLKIEIAGSGDFVGHKVYCEELNGDMAGSNTIVLGGTVGIAEFSIAGSGTVRAFDCTMDELECKIAGSGDIEAFVVNKIKAEIAGSGSVKYKGDPQDIQKKVMGSGKIEKVE | not failed |
| GEVVLKMKVEGMTCHSCTSTIEGKIGKLQGVQRIKVSLDNQEATIVYQPHLISVEEMKKQIEAMGFPAFVKKIEGR | not failed |
| GFVCDDFPKPQITVQPETQSAIKGSDVSFTCSAASSSDSPMTFAWKKDNEALQDAEMENYAHLRAQGGELMEYTTILRLRNVEFTSEGKYQCVISNHFGSSYSVKAKLTIN | not failed |

| Sequence | protein production |
| --- | --- |
| GGLTEICRKPVSPGCISSVSDWLISIGLPMYAGTLSTAGFSTLSQVPSLSHTCLQEAGITEERHIRKLLSAARLFKLPPGPEAM | not failed |
| GHMAIQRRIRRVKTVQMTTNSPIHRSGSVLEPGNWQEYDPFLLLMEDIFERGTFDVHPHRGIETVTYVISGELEHFDSKAGHSTLGPGDVQWMTAGRGVVHKEDPASGSTVHSLQLWVNLPSAYKMTEPRYQNLRSKDMPVRKEEGATIRVFSGSSKGVKAPTKNIVPVTMVEMIVEPGTTVVQDLPGHYNGFLYILEGSGVFGADNIEGKAGQALFFSRHNRGEETELNVTAREKLRLLLYAGEPVNEPVVAYGPFVMNTPEQIREAIRDYQEGRFGR | not failed |
| GIATSDNFMQAFLNVLDQCPKLEVDIPLVKSYLAQFAARAIISELVSISELAQPLESGTHFP | failed |
| GKVIVLDAGHGGPDGGAVGGKDIVEKDITLEITKKVQDYLQEQGALVILTREGDYDLAQKDTKSYSRRKAEDLKKRVEIINKPDVDFFASIHLNALTSSGSKGAQTFYYRSSIENERAAKFIQAELRTSLENTNRSAKTISHVYLLKYAKTPGALIEAGFLSNVNERYMLNSEKYQQKVAAAVYRGILRYFTEKGNPPE | failed |
| GLGFMALDEDLRIIYVNSGCLRHVRRSRDELLGRVVTEVLPETQGSYFDALCRKVLATGREQQTRVDSLYSPGMTIEVTAAADSGALVVHFRDVTAE | not failed |
| GMIDGHHHLTQSFAKSLAYGEPSEIFKRIWVPLESNLNEQFVYLCTKLAALESLRGGFTTVCDAGTRSEIGMQLMVRALEETGLRCVLSLICNDGRAHSTLELRQNILENAQIFIKSYKQHKNVHPSLAISIPEVASDDMLYEVSKLCANSNIIFQVHVNEHLASVERSIIQQGMRPLEHLAKVGALGPQTLIAHATMLTPSELLLLQRTDTAVSYNPVASQWKGNAVASAHLMHELNIRFALGTDATRADGFRLLDAAEATQKLIFGIPTGDCSTGGGWMWLDHATTAGAEAVGLSQL | failed |
| GQPSNDKKNVLPDWAFGGFERPQGANPVISPIENTKFYCPMTQDYVAWESNDTFNPAATLHDGKIVVLYRAEDKSGVGIGHRTSRLGYATSSDGIHFKREKTPVFYPDNDTQKKLEWPGGCEDPRIAVTAEGLYVMTYTQWNRHIPRLAIATSRNLKDWTKHGPAFAKAYDGKFFNLGCKSGSILTEVVNGKQVIKKIDGKYFMYWGEEHVFAATSEDLVNWTPYVNTDGSLRKLFSPRDGHFDSQLTECGPPAIYTPKGIVLLYNGKNSASRGDKRYTANVYAAGQALFDANDPTRFITRLDEPFFRPMDSFEKSGQYVDGTVFIEGMVYYKDKWYLYYGCADSKVGMAIYNPKKPAAADPLP | not failed |
| GQTFAGVIRGVQSYGFFVQIEALQVEGLVHVSSPKDDWYEYRSRQQRLIGRKNRRQFGLGDRVEVEIRNVDYYRQQIDLGVLPLP | failed |
| GRARVKVEGVFYNPRMRFCRDLDMLVFATMDSKEYFDALSASGIRGIRAALEAGKKAVFNDVSPKAVKVIEENLRENGVSGEVINGDAAAVMRQRAFEHIDIDPFGSPAPFMDSACFSAKRYLSVTATDTAALCGSATNSGLKKYGAFAVKTDVYHEVGLRMLIGFVVREATKYEKALFPLISWVREHYYRVHFKIKKSTAMSAKVYEKMGYLAYCSTCLRKKVLGMGEGAERCECGGKFSLIGPIWLGELKQRDFAEKVAEKAEGKLRAFLEKILAEIDAPTAYSLPALAKIHSLTLPPTDVVVEELKKLGYEASRTHYCGFCVKTDADRDVVVKILRSRK | failed |
| GRGAFGVVCKAKWRAKDVAIKQIESESERKAFIVELRQLSRVNHPNIVKLYGACLNPVCLVMEYAEGGSLYNVLHGAEPLPYYTAAHAMSWCLQCSQGVAYLHSMQPKALIHRDLKPPNLLLVAGGTVLKICDFGTACDIQTHMTNNKGSAAWMAPEVFEGSNYSEKCDVFSWGIILWEVITRRKPFDEIGGPAFRIMWAVHNGTRPPLIKNLPKPIESLMTRCWSKDPSQRPSMEEIVKIMTHLMRYFPGADEPLQYPCQYSDEGQSNSATSTGSFMDIASTNTSNKSDTNMEQVPATNDTIKRLESKLLKNQAKQQ | failed |
| GRKYLVNFSDIYYIESVDKKTFVYLADEIYQTDLRLYQLLHDLQHDGFVQISKSCLLNINVLENIRPLFNSRMEATLLNGERVIVNRRYLPDVKEALKGIQ | failed |
| GSAYTPLSEDESHRIFELVKEIDTSNQDASKSEKILQQRLDLLHQVRLRYFTPREVARLMSFPENFEFPPETTNRQKYRLLGNSINVKVVGELIKLLTIK | failed |
| GSSGSSGHADEVWPGLYLGDQDMANNRRELRRLGITHVLNASHSRWRGTPEAYEGLGIRYLGVEAHDSPAFDMSIHFQTAADFIHRALSQPGGKILVHCAVGVSRSATLVLAYLMLYHHLTLVEAIKKVKDHRGIIPNRGFLRQLLALDRRLRQGLEA | not failed |
| GTGLHCLSIERDLMKKFHLKDAFIIPTPVNNYHASLGKAAAQYLETHLQQGDLLGIGWGETISKMLENIHFETSINLSIVTLTGGVNHYLSRKQNYLHYMQGDLHIIPTPFLASTTEMAQSILSEPSVKDMLHVASLAHTAIVGIGGLSQDATIVKEEKLTLREMTYIRSQNGAGDILGQFYNTNGDLLELSHHNRLIGTPLSILRNMNHVVGVAGGTEKIDAIYGALKGKFIHTLITDEETALSLLRKDGDC | failed |
| GTLQDGAVDWGVRRTFREYVTGDIAHGEWALTAGAQDGGALFRFPGGEGTYEDGDLNAAFRGTVRFTGAHGLDLSLGNVRTVVEDGRGTLYADVTSPDVKEAKVPLVTFTAGEPKPAGGLVKVTEAPAKLTARGAKAFGGMYRAGTEMDPVSLAVAL | failed |
| GTVSATSPNKCKRPMNAFMLFAKKYRVEYTQMYPGKDNRAISVILGDRWKKMKNEERRMYTLEAKALAEEQKRLNPDCWK | not failed |
| GVKCEPFEALTVDVEDAHQGGVMEELGRRKGDLQDMQPDGRGRTRLEYIIPARGLIGFQNEFLTLTRGTGLMSHIFHEYAPLREGSIGERRNGVLISQDNGDAVAYALWKLQDRGRMFVSPGEPLYEGMI | failed |
